Source: patent US20230348588A1 (published 2023)
Where a chain is given by its changes, count along the chain named. Values belong to the binder of their own block, whether it stands above or below them.

Experiments:
[1] = target: T1, extracellular domain (ECD) of recombinant human Sortilin with a C-terminal HIS tag (ECD-huSortilin-HIS) (human, UniProt Q99523 78-755); assay: SPR (Biacore T200), mAb captured on anti-human chip, sortilin as analyte, global 1:1 fit
T1 construct: Bought (R&D Systems); also called human sortilin-ECD
T1 sequence: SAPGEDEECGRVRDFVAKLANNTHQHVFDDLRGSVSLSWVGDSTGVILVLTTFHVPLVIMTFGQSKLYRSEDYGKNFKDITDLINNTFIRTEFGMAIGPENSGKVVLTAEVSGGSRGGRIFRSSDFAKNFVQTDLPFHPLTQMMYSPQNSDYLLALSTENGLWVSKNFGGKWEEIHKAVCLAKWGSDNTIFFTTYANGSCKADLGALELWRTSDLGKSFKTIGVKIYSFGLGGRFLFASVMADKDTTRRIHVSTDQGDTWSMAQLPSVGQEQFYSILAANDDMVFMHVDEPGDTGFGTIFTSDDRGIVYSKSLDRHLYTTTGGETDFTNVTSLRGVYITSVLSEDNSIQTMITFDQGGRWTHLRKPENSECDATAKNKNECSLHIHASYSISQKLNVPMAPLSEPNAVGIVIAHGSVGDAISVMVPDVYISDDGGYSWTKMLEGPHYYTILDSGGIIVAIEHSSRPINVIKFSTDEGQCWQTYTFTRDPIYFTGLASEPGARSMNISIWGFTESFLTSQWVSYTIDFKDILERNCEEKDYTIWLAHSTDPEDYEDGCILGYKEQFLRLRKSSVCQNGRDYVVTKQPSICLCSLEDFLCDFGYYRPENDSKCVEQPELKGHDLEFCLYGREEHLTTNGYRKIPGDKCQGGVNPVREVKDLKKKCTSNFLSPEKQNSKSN
Procedure: Analysis was performed using a Biacore T200 to compare the binding affinity of chimeric and humanized antibodies to recombinant human Sortilin. Anti-Human antibody was immobilized on sensor chip CM5 (GE Healthcare Life Sciences) via amine coupling, and humanized antibodies (ligand) were captured to a level to ensure a maximum binding of analyte of 50 RU (approximately 100 RU of ligand binding). Various concentrations of Sortilin (ranging from 0.1 nM to 300 nM) were passed over the captured ligand at 50 µL/min in running buffer (HBS + 0.05% P-20, 1 mg/mL BSA) for 300 s association time and 1200 s dissociation time. Regeneration of the chip surface was accomplished by 2 short injections of 3 M MgCl. Data was blank subtracted to both a sensor not containing ligand and 0 nM analyte concentration. Analysis was performed using a global 1:1 fit with Biacore Insight Evaluation software (v2.0) with bulk refractive index set to zero RU.

[2] = target: T1, extracellular domain (ECD) of …; assay: SPR (Biacore T200), mAb captured on anti-mouse chip, sortilin as analyte, global 1:1 fit
Procedure: Analysis was performed using a Biacore T200 to compare the binding affinity of murine anti-huSortilin antibodies to recombinant human Sortilin. Anti-mouse antibody was immobilized on sensor chip CM5 (GE Healthcare Life Sciences) via amine coupling, and mouse antibodies (ligand) were captured to a level to ensure a maximum binding of analyte of 50 RU (approximately 100RU of ligand binding). Various concentrations of Sortilin (ranging from 0.1 nM to 300 nM) were passed over the captured ligand at 50 µL/min in running buffer (HBS + 0.05% P-20, 1 mg/mL BSA) for 180-300 s association time and 300-900 s dissociation time. Regeneration of the chip surface was accomplished by 2 short injections of 10 mM Glycine-HCI at pH 1.7. Data was blank subtracted to both a sensor not containing ligand and 0 nM analyte concentration. Analysis was performed using a global 1:1 fit with Biacore Insight Evaluation software (v2.0) with bulk refractive index set to zero RU.

koff [1]: 0.000969 s⁻¹
kon [1]: 384000 M⁻¹ s⁻¹
B1: chimeric 11M14 (antibody, human IgG1, kappa, L234A L235A, V domains shown)
VH: EVQLVESGGDLVKPGGSLKLSCAASGFTFNIYGMSWVRQTPDKRLEWVATISSGGIYTYYPDILKGRFTISRDNAKNTLYLQMSSLKSEDTAMYYCARHPGGAMDYWGQGTSVTVSS
VL: DIQMTQSPASLSVSVGETVTITCRVSENIYSNLAWYQQKQGKSPHLLVYAATNLADGVPSRFSGSGSGTQYSLKINSLQSEDFGSYYCQHFWGTPPWTFGGGTKLEIKR

koff [2]: 0.000162 s⁻¹
kon [2]: 57600 M⁻¹ s⁻¹
B3: mouse monoclonal antibody 2F18 (antibody, mouse IgG1, V domains shown)
VH: B1 VH with S53T, I63S, L64V, G101V, M104L
VL: DIQVTQSPASLSVSVGETVTITCRASENIYSNLAWYQQKQGKSPHLLVYTATTLADGVPSRFSGSGSGTQYSLKINSLQSEDFGSYYCQHFWGTPPWTFGGGTKLEIK

koff [2]: 0.000237 s⁻¹
kon [2]: 108000 M⁻¹ s⁻¹
B4: mouse monoclonal antibody 2P22 (antibody, mouse IgG2b, V domains shown)
VH: EVQLVESGGDLVKPGGSLKLSCAASGFTFSIYGMSWVRQTPDKKLEWVAAISSGGIYTYYPDSVKGRFTISRDNAKNTLYLQMSSLKSADTAMYYCTRNDYDWFAYWGQGTLVTVSA
VL: DIQMTQSPSSLSASLGERVSLTCRASQDIGSSLNWLQQEPDGTIKRLIYATSSLDSGVPKRFSGSRSGSDYSLTISSLESEDFVDYYCLQYASSPYTFGGGTKLEIK

koff [1]: 0.000396 s⁻¹
kon [1]: 597000 M⁻¹ s⁻¹
B7: chimeric 5E20 (antibody, human IgG1, kappa, L234A L235A, V domains shown)
VH: EVQLVESGGDLVKPGGSLKLSCAAPGFTFSTYGMSWVRQTPDKRLEWVAIISSGGSYTYYSDTVKGRFTISRDNAKNTLYLQMSSLKSEDTAMYYCSRSSSHWYFDVWGTGTTVTVSS
VL: DILMTQSPSSMSVSLGDTVSITCHASQGISSNIGWLQQKPGKSFKGLIYHGTNLKDGVPSRFSGSGSGADFSLTISSLESEDFADYFCVQYAQFPYTFGGGTKLEIKR

koff [2]: 0.00013 s⁻¹
kon [2]: 127000 M⁻¹ s⁻¹
B8: mouse monoclonal antibody 6B15 (antibody, mouse IgG1, V domains shown)
VH: B7 VH with Y80N, Y95F
VL: DILMTQFPSSMSVSLGDTVSITCHASQGISSNIGWLQQKPGKSFKGLIYHGTNLKDGVPSRFSGSGSGTDFSLTISSLESEDFADYYCVQYAQFPYTFGGGTKLEKR

koff [1]: 0.00257 s⁻¹
B10: hu8H24VHv2/hu8H24VLv1 (antibody, V domains shown)
VH: QAQLVQSGAEVVKPGSSVKVSCKASGYTFTSYSMHWVRQAPGQGLEWIGAIYPGNDATSYNQKFKGRATLTVDKSTSTAYMELSSLRSEDTAVYFCAREGYYGSSFEAWFASWGQGTTVTVSS
VL: DVVMTQTPLSLPVTPGEPASISCRSSQSIVHSNGNTYLEWYLQKPGQSPQLLIYKVSNRFSGVPDRFSGSGSGTDFTLKISRVEAEDVGVYYCFQGSHVLPTFGGGTKVEIK
notes: Humanized variable regions; also called 8H24H2L1

Continued, binder first:

B2: mouse monoclonal antibody 11M14 (antibody, V domains shown)
VH: B1 VH
VL: B3 VL with V4M, A25V, T50A, T53N
notes: also called murine 11M14; m11M14
koff [2]: 0.000569 s⁻¹
kon [2]: 91100 M⁻¹ s⁻¹

B5: mouse monoclonal antibody 5E20 (antibody, V domains shown)
VH: B7 VH
VL: B8 VL with F7S, T69A, Y87F
notes: also called murine 5E20; m5E20
koff [2]: 0.000139 s⁻¹
kon [2]: 87700 M⁻¹ s⁻¹

B6: mouse monoclonal antibody 2C14 (antibody, mouse IgG1, V domains shown)
VH: EVQLVESGGDLVKPGGSLKLSCAASGFTFNTHGMSWVRQTPDKSLEWVATISTGGFYTSYPDSVKGRFTISRDNAKNTLFLQMSSLKSEDTAMYYCAKSSSHWYFDVWGTGTTVTVSS
VL: B8 VL with F7S, K55E, T69A, F71Y, S80Y, Q93H, K106I, R107K
koff [2]: 0.00245 s⁻¹
kon [2]: 208000 M⁻¹ s⁻¹

B9: mouse monoclonal antibody 8H24 (antibody, V domains shown)
VH: QAYLQQSGTELVRPGASVKMSCKASGYTFTSYSMHWVKQTPRQGLEWIGAIYPGNDATSYNQKFKGKATLTVDKSSSTAYMQLSSLTSEDSAVYFCAREGYYGSSFEAWFASWGQGTLVTVSA
VL: B10 VL with V3L, T14S, P15L, E17D, P18Q, Q50K, V88L, V109L
notes: also called murine 8H24; m8H24
koff [2]: 0.00044 s⁻¹
kon [2]: 96600 M⁻¹ s⁻¹

B11: hu8H24VHv2/hu8H24VLv2 (antibody, V domains shown)
VH: B10 VH
VL: B10 VL with L9S, K79T
notes: Humanized variable regions; also called 8H24H2L2
koff [1]: 0.0025 s⁻¹
